These are literature values, as cited in PMC4768738.

Usually Kd stands for the free concentration of one partner at which half of the binding sites on the other are occupied at equilibrium, for simple one-to-one binding.

Data set [1] addresses ankyrin (Homo sapiens) (UniProt P16157).
Data set [2] addresses p55 (Homo sapiens) (UniProt Q00013).
Chain of UniProt Q00013 (Q00013 2-466): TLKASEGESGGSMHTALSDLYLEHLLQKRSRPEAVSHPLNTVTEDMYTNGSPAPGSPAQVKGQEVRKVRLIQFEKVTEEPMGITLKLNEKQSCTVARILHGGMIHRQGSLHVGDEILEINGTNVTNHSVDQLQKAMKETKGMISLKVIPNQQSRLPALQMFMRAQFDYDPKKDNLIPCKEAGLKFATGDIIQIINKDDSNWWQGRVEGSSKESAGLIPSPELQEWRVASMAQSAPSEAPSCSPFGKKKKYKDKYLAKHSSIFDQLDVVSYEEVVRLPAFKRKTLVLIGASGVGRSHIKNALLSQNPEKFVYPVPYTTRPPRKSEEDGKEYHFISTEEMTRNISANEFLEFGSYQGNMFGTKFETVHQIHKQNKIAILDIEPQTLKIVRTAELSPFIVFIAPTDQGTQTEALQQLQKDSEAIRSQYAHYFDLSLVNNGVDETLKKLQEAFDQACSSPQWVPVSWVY

Chain of UniProt P16157 (P16157 whole entry): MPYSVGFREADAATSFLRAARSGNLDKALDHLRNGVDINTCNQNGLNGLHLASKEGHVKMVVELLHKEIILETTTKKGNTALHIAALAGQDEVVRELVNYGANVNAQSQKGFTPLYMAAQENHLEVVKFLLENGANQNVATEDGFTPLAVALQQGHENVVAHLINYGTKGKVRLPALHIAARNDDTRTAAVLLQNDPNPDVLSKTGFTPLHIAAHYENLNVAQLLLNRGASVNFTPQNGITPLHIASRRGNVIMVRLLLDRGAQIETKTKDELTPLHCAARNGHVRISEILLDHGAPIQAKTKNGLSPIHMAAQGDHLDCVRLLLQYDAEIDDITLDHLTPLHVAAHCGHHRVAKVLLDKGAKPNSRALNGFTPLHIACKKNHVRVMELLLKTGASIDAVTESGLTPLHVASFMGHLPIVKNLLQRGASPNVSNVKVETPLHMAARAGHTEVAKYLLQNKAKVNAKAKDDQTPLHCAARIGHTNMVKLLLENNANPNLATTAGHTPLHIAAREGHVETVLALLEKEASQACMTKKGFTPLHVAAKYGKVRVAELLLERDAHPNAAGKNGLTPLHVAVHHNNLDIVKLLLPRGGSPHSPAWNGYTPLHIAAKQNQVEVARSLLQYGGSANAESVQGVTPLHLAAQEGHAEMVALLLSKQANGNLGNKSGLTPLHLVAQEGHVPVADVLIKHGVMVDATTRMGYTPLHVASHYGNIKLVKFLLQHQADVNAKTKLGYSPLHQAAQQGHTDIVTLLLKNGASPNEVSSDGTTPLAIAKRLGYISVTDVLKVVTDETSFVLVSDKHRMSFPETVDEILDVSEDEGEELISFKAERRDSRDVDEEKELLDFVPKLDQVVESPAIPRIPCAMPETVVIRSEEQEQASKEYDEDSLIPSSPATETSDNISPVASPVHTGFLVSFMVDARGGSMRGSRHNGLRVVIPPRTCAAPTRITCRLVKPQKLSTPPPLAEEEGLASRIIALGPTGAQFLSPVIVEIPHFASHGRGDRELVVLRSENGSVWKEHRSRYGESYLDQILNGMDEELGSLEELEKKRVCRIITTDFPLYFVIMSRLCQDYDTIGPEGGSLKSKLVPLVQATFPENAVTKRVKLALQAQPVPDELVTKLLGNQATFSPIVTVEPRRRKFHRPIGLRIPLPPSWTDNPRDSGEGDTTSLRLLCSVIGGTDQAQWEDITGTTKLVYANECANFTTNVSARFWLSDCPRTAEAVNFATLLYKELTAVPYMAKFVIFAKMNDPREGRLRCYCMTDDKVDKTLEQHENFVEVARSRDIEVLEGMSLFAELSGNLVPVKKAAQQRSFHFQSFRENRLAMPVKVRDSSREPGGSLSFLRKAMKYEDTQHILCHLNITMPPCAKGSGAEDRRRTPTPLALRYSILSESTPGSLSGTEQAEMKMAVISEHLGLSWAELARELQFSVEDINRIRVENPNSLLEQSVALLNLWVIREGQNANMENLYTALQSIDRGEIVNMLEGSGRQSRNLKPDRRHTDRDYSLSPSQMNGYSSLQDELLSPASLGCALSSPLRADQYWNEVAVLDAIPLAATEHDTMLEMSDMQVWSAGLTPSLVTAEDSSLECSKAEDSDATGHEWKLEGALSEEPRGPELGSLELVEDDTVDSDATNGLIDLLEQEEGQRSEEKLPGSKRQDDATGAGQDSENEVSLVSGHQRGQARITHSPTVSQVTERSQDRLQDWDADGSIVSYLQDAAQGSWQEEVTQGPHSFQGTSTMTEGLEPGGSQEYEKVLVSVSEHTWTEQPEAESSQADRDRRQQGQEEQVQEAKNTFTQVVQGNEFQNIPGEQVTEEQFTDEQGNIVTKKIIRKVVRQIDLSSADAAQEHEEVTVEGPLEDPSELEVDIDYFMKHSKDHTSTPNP

For the substance protein 4.2 (from UniProt P16452), in data set [1], the Kd is 100 nM. For the substance protein 4.1R (from UniProt P11171), the Kd in data set [2] is 100 nM.
